Biological target: T1, human ADAMTS5 (human, UniProt Q9UNA0 262-622, limits assumed)
T1 construct: Octet and ELISA used 'recombinant human ADAMTS5'; also called recombinant human ADAMTS5; ADAMTS5 (R&D Systems 2198-AD)
T1 sequence: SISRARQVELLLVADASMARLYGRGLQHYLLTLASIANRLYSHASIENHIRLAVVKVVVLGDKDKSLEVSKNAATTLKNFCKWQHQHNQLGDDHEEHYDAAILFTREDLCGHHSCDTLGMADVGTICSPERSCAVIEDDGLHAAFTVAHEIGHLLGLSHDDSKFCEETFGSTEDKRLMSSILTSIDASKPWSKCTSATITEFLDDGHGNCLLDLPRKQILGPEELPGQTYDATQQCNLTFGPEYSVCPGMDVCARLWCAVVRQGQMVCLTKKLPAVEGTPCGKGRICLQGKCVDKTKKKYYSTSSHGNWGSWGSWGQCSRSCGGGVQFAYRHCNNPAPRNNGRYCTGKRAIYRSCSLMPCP
Test: Biacore, mAb from culture supernatant captured on anti-human IgG, ADAMTS5 (R&D 2198-AD) at 64 nM, 1:1 fit
Method: Anti-human IgG (Biacore™, BR-1008-39) was immobilized on a CM5 chip by primary amine coupling. This surface was then used to capture the humanized antibodies, ADAMTS5 (R&D Systems 2198-AD) was then passed over the captured antibody at a single concentration of 64 nM, regeneration was carried out using 100 mM phosphoric acid followed by 3M MgCl₂. The binding curves were double referenced with buffer injection (i.e. 0 nM) and the data was fitted to the T100 analysis software using the 1:1 model. The run was carried out at 25° C., using HBS-EP as the running buffer. All antibodies were captured from tissue culture supernatants unless specified.

Binder | Kd | koff | kon
BPC1656 (antibody, human IgG1, kappa, V domains shown, Humanized, human gamma 1 / kappa; also called 12F4 H1L0) VH: EVQLLESGGGLVQPGGSLRLSCAASGFTFSDAWMDWVRQAPGKGLEWVSEIRHKANDHAIFYDESVKGRFTISRDNSKNTLYLQMNSLRAEDTAVYYCTSPFAYWGQGTLVTVSS VL: DIQMTQSPSSLSASVGDRVTITCKASQSVGTTIVWYQQKPGKAPKLLIYSASNRHTGVPSRFSGSGSGTDFTLTISSLQPEDFATYYCQQYTSYPFTFGQGTKLEIKR | 0.624 nM | 0.000395 s⁻¹ | 633000 M⁻¹ s⁻¹
BPC1658 (antibody, human IgG1, kappa, V domains shown, Humanized, human gamma 1 / kappa; also called 12F4 H3L0) VH: EVQLLESGGGLVQPGGSLRLSCAASGFTFSDAWMDWVRQAPGKGLEWVAEIRHKANDHAIFYDESVKGRFTISRDNSKNTVYLQMNSLRAEDTAVYYCTSPFAYWGQGTLVTVSS VL: DIQMTQSPSSLSASVGDRVTITCKASQSVGTTIVWYQQKPGKAPKLLIYSASNRHTGVPSRFSGSGSGTDFTLTISSLQPEDFATYYCQQYTSYPFTFGQGTKLEIKR | 0.312 nM | 0.00014 s⁻¹ | 448000 M⁻¹ s⁻¹
BPC1657 (antibody, human IgG1, kappa, V domains shown, Humanized, human gamma 1 / kappa; also called 12F4 H2L0) VH: EVQLLESGGGLVQPGGSLRLSCAASGFTFSDAWMDWVRQAPGKGLEWVSEIRHKANDHAIFYDESVKGRFTISRDDSKNTLYLQMNSLRAEDTAVYYCTSPFAYWGQGTLVTVSS VL: DIQMTQSPSSLSASVGDRVTITCKASQSVGTTIVWYQQKPGKAPKLLIYSASNRHTGVPSRFSGSGSGTDFTLTISSLQPEDFATYYCQQYTSYPFTFGQGTKLEIKR | 0.129 nM | 7.54e-05 s⁻¹ | 585000 M⁻¹ s⁻¹
BPC1644 (antibody, human IgG1, kappa, V domains shown, Humanized, human gamma 1 / kappa; also called 7B4 H3L1) VH: EVQLVESGGGLVQPGGSLRLSCAASGFTSSDAWMDWVRQAPGKGLEWVAEIRNKANNHARHYAESVKGRFTISRDNAKNSLYLQMNSLRAEDTAVYYCTRTYYYGSSYGYCDVWGQGTLVTVSS VL: DIQMTQSPSSLSASVGDRVTITCRTSENIYSYLAWYQQKPGKAPKLLVYNAKTLAEGVPSRFSGSGSGTDFTLTISSLQPEDFATYYCQHHYGTPWTFGQGTKLEIKR | 1.05 nM | 0.00157 s⁻¹ | 1.49e+06 M⁻¹ s⁻¹
BPC1636 (antibody, human IgG1, kappa, V domains shown, Humanized, human gamma 1 / kappa; also called 7B4 H2L0) VH: EVQLVESGGGLVQPGGSLRLSCAASGFTSSDAWMDWVRQAPGKGLEWVAEIRNKANNHARHYAESVKGRFTISRDNAKNSLYLQMNSLRAEDTAVYYCARTYYYGSSYGYCDVWGQGTLVTVSS VL: DIQMTQSPSSLSASVGDRVTITCRTSENIYSYLAWYQQKPGKAPKLLIYNAKTLAEGVPSRFSGSGSGTDFTLTISSLQPEDFATYYCQHHYGTPWTFGQGTKLEIKR | 0.836 nM | 0.000896 s⁻¹ | 1.07e+06 M⁻¹ s⁻¹
BPC1637 (antibody, human IgG1, kappa, V domains shown, Humanized, human gamma 1 / kappa; also called 7B4 H3L0) VH: EVQLVESGGGLVQPGGSLRLSCAASGFTSSDAWMDWVRQAPGKGLEWVAEIRNKANNHARHYAESVKGRFTISRDNAKNSLYLQMNSLRAEDTAVYYCTRTYYYGSSYGYCDVWGQGTLVTVSS VL: DIQMTQSPSSLSASVGDRVTITCRTSENIYSYLAWYQQKPGKAPKLLIYNAKTLAEGVPSRFSGSGSGTDFTLTISSLQPEDFATYYCQHHYGTPWTFGQGTKLEIKR | 0.86 nM | 0.000963 s⁻¹ | 1.12e+06 M⁻¹ s⁻¹
BPC1638 (antibody, human IgG1, kappa, V domains shown, Humanized, human gamma 1 / kappa; also called 7B4 H4L0) VH: EVQLVESGGGLVQPGGSLRLSCAASGFTSSDAWMDWVRQAPGKGLEWVAEIRNKANNHARHYAESVKGRFTISRDDAKNSLYLQMNSLRAEDTAVYYCTRTYYYGSSYGYCDVWGQGTLVTVSS VL: DIQMTQSPSSLSASVGDRVTITCRTSENIYSYLAWYQQKPGKAPKLLIYNAKTLAEGVPSRFSGSGSGTDFTLTISSLQPEDFATYYCQHHYGTPWTFGQGTKLEIKR | 0.95 nM | 0.000831 s⁻¹ | 875000 M⁻¹ s⁻¹
BPC1635 (antibody, human IgG1, kappa, V domains shown, Humanized, human gamma 1 / kappa; also called 7B4 H1L0) VH: EVQLVESGGGLVQPGGSLRLSCAASGFTFSDAWMDWVRQAPGKGLEWVAEIRNKANNHARHYAESVKGRFTISRDNAKNSLYLQMNSLRAEDTAVYYCTRTYYYGSSYGYCDVWGQGTLVTVSS VL: DIQMTQSPSSLSASVGDRVTITCRTSENIYSYLAWYQQKPGKAPKLLIYNAKTLAEGVPSRFSGSGSGTDFTLTISSLQPEDFATYYCQHHYGTPWTFGQGTKLEIKR | 1.17 nM | 0.000826 s⁻¹ | 704000 M⁻¹ s⁻¹

Source: patent US20120095193A1 (published 2012)
